From patent US20140087995A1 (published 2014) come the findings set out here.

Numbered stars: 1 amine (or outer) side, 2 acyl side, 3 side chain; on linkers, the order of the positions; unused ones are H or OH. Bridge positions count the residues as written; N and C are the ends. Side chains are listed from the residue outwards. Ends that are not written are not given here. * marks the point of attachment. C20 diacid = O=C(O)CCCCCCCCCCCCCCCCCCC(=O)*; γGlu = O=C(O)[C@H](CCC(=O)[*:2])N[*:1]; AEEA = NCCOCCOCC(=O)O

As a reminder, the IC50 is the concentration that gives 50% inhibition.

Test [1] addresses T1, human amylin receptor (amylin 3(a) receptor: human calcitonin receptor plus RAMP-3) (human, UniProt P30988 25-474; O60896 24-148).
T1 sequence (looked up) 1: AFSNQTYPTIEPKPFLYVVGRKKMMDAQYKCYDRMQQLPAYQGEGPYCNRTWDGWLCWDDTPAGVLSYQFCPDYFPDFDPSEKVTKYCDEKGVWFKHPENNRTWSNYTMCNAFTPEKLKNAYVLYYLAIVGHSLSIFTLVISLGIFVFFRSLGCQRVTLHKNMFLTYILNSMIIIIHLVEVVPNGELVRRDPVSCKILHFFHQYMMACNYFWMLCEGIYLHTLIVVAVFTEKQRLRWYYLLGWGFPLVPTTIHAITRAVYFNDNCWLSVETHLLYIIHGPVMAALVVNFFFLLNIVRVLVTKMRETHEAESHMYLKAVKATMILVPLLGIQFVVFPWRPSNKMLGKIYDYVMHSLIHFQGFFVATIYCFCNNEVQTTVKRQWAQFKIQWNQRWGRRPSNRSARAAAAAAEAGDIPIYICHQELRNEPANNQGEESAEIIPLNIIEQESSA
T1 sequence (looked up) 2: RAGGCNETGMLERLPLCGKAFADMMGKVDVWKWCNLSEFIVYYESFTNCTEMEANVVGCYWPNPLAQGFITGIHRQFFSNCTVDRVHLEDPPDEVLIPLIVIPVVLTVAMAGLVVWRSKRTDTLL
In words: cell-based or functional assay.

Test [2] deals with T2, human calcitonin receptor (human, UniProt P30988 25-474).
T2 sequence (looked up): T1 sequence (looked up) 1
In words: cell-based or functional assay.

Test [3] has as its target T1, human amylin receptor (amylin 3(a) …). In words: SPA competition binding, displacement of 125I-rat amylin, membranes of BHK amylin 3(a)/CRE-luc cells. The method, boiled down: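 Membranes from BHK Amylin 3(a)/CRE-luc cells (35 ng/μL final) were mixed with SPA beads and test compounds in 50 mM Hepes pH 7.4 with 1 mM CaCl2, 5 mM MgCl₂, 0.1% OA and 0.02% Tween20. Incubation ran 120 min at 25° C with shaking; IC₅₀ came from one-site competition fitting.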

B1: N^-1-[(4S)-4-carboxy-4-(19-carboxynonadecanoylamino)butanoyl]-Gly[Arg1,Arg17,Pro21,Pro27]-h-amylin (peptide)
peptide: {C20 diacid-γGlu}-GRCNTATCATQRLANFLRHSSPNFGAIPSSTNVGSNTY-NH2
modifications: disulfide 3-8
SMILES: CC[C@H](C)[C@H](NC(=O)[C@H](C)NC(=O)CNC(=O)[C@H](Cc1ccccc1)NC(=O)[C@H](CC(N)=O)NC(=O)[C@@H]1CCCN1C(=O)[C@H](CO)NC(=O)[C@H](CO)NC(=O)[C@H](Cc1c[nH]cn1)NC(=O)[C@H](CCCNC(=N)N)NC(=O)[C@H](CC(C)C)NC(=O)[C@H](Cc1ccccc1)NC(=O)[C@H](CC(N)=O)NC(=O)[C@H](C)NC(=O)[C@H](CC(C)C)NC(=O)[C@H](CCCNC(=N)N)NC(=O)[C@H](CCC(N)=O)NC(=O)[C@@H](NC(=O)[C@H](C)NC(=O)[C@@H]1CSSC[C@H](NC(=O)[C@H](CCCNC(=N)N)NC(=O)CNC(=O)CC[C@H](NC(=O)CCCCCCCCCCCCCCCCCCC(=O)O)C(=O)O)C(=O)N[C@@H](CC(N)=O)C(=O)N[C@@H]([C@@H](C)O)C(=O)N[C@@H](C)C(=O)N[C@@H]([C@@H](C)O)C(=O)N1)[C@@H](C)O)C(=O)N1CCC[C@H]1C(=O)N[C@@H](CO)C(=O)N[C@@H](CO)C(=O)N[C@H](C(=O)N[C@@H](CC(N)=O)C(=O)N[C@H](C(=O)NCC(=O)N[C@@H](CO)C(=O)N[C@@H](CC(N)=O)C(=O)N[C@H](C(=O)N[C@@H](Cc1ccc(O)cc1)C(N)=O)[C@@H](C)O)C(C)C)[C@@H](C)O
notes: also called compound 46
As to B1, in test [1], the “Ratio hCT/hAmylin funct.” value stood at 10.2 and the “hAmylin-R funct. EC50 (pM)” value was determined as 88 pM. Further, the “hCTR funct. EC50 (pM)” value in test [2] is 899 pM. Also, the IC50 in test [3] stood at 0.195 nM.

B2: N^ε-[2-[2-[2-[[(4S)-4-carboxy-4-(19-carboxynonadecanoylamino)butanoyl]amino]ethoxy]ethoxy]acetyl]Lys[Arg1,Arg17,Pro21,Pro27,His35]-h-amylin (peptide)
peptide: K([AEEA-γGlu-C20 diacid])RCNTATCATQRLANFLRHSSPNFGAIPSSTNVGSHTY-NH2
modifications: disulfide 3-8; N-terminus assumed
SMILES: CC[C@H](C)[C@H](NC(=O)[C@H](C)NC(=O)CNC(=O)[C@H](Cc1ccccc1)NC(=O)[C@H](CC(N)=O)NC(=O)[C@@H]1CCCN1C(=O)[C@H](CO)NC(=O)[C@H](CO)NC(=O)[C@H](Cc1c[nH]cn1)NC(=O)[C@H](CCCNC(=N)N)NC(=O)[C@H](CC(C)C)NC(=O)[C@H](Cc1ccccc1)NC(=O)[C@H](CC(N)=O)NC(=O)[C@H](C)NC(=O)[C@H](CC(C)C)NC(=O)[C@H](CCCNC(=N)N)NC(=O)[C@H](CCC(N)=O)NC(=O)[C@@H](NC(=O)[C@H](C)NC(=O)[C@@H]1CSSC[C@H](NC(=O)[C@H](CCCNC(=N)N)NC(=O)[C@@H](N)CCCCNC(=O)COCCOCCNC(=O)CC[C@H](NC(=O)CCCCCCCCCCCCCCCCCCC(=O)O)C(=O)O)C(=O)N[C@@H](CC(N)=O)C(=O)N[C@@H]([C@@H](C)O)C(=O)N[C@@H](C)C(=O)N[C@@H]([C@@H](C)O)C(=O)N1)[C@@H](C)O)C(=O)N1CCC[C@H]1C(=O)N[C@@H](CO)C(=O)N[C@@H](CO)C(=O)N[C@H](C(=O)N[C@@H](CC(N)=O)C(=O)N[C@H](C(=O)NCC(=O)N[C@@H](CO)C(=O)N[C@@H](Cc1c[nH]cn1)C(=O)N[C@H](C(=O)N[C@@H](Cc1ccc(O)cc1)C(N)=O)[C@@H](C)O)C(C)C)[C@@H](C)O
notes: also called compound 45
Consider B2, for which, in test [1], the “Ratio hCT/hAmylin funct.” value was determined as 17 and the “hAmylin-R funct. EC50 (pM)” value was 594 pM. Also, the “hCTR funct. EC50 (pM)” value in test [2] is 10100 pM. In addition, the concentration for half-maximal inhibition (IC50) in test [3] is 0.552 nM.
